Substitutions are numbered along the chain they refer to.
Tests used:
Assay in all cases: FACS, mutant-EGFP on HEK293F cells
[1] = target: T1, KW27-3 (human CD39 mutant, C-terminal EGFP) (human, UniProt P49961 1-510)
T1 construct: expressed on HEK293F cells; not shown: C-terminal EGFP fusion (vector pCMV3-GFPSpark)
T1 chain: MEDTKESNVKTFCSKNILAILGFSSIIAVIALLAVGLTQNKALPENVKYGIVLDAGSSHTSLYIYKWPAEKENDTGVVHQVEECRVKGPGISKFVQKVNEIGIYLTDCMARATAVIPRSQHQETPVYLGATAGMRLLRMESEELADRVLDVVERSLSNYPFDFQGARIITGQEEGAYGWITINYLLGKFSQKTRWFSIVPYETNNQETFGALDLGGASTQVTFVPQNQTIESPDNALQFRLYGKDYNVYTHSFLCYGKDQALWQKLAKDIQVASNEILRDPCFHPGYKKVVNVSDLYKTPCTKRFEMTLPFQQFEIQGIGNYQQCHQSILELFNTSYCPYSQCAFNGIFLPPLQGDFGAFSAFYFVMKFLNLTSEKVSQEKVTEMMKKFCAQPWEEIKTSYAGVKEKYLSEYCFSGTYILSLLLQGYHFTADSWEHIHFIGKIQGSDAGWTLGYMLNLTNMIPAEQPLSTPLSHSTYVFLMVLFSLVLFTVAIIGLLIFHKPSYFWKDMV
Experimental: (§1) Briefly, the human CD39 mutants were generated by gene synthesis and then cloned into an expression vector pCMV3-GFPSpark. The vectors containing the validated mutated sequences were prepared and transfected into HEK293F cells. Three days post transfection, the cells were collected to testing EGFP for transgene expression. A range of dosages of antibodies (start from 100 nM, 3-folds dilution, 11 points) were tested on the 20 generated mutants and stained by AlexFluor647 labelled anti-hIgG by FACS. Antibody binding was descripted as relative binding which is derived from AlexFluor647 intensity divided by GFP intensity.

[2] = target: T2, KW27-14 (human CD39 mutant, C-terminal EGFP) (human, UniProt P49961 1-510)
T2 construct: expressed on HEK293F cells; not shown: C-terminal EGFP fusion (vector pCMV3-GFPSpark)
T2 chain: T1 chain with A110E, T113R, A114E, K388N, Q392K, P393S, E396A
Experimental: as §1

[3] = target: T3, KW27-15 (human CD39 mutant, C-terminal EGFP) (human, UniProt P49961 1-510)
T3 construct: expressed on HEK293F cells; not shown: C-terminal EGFP fusion (vector pCMV3-GFPSpark)
T3 chain: T1 chain with A110E, T113R, A114E, A402P, G403A, K405A, E406A
Experimental: as §1

[4] = target: T4, KW27-17 (human CD39 mutant, C-terminal EGFP) (human, UniProt P49961 1-510)
T4 construct: expressed on HEK293F cells; not shown: C-terminal EGFP fusion (vector pCMV3-GFPSpark)
T4 chain: T1 chain with A110E, T113R, A114E, Q323A, Q324A, Q327A, E331K
Experimental: as §1

Measured: binding result

B1: hu23.H5L5 (antibody, V domains shown)
VH: QVQLVQSGAEVKKPGASVKVSCKASGYNLKDTFLHWVRQAPGQGLEWMGRIDPANGNIKYDPKFQGRVTITADTSANTAYMELISLRSEDTAVYYCANSPYYYGSGYRIFDVWGQGTTVTVSS
VL: QIVLTQSPATLSLSPGERATLSCSAFSSVNYMHWYQQKPGQAPRLLIYTTSNLASGIPTRFSGSGSGTSYTLTISSLEPEDFAVYYCQQRSTYPFTFGQGTKLEIK
notes: humanized c23
binds: all assays above

B2: c35 (antibody, V domains shown)
VH: EVRLQQSGAELVKPGASVKLSCTASGFNIEDTYVHWMKQRPEQGLEWIGRIDPAIDNSKYDPKFQGKATITAVSSSNTAYLQLSSLTSEDTAVYYCALYDGYNVYAMDYWGQGTSVTVSS
VL: DIVMTQAAFSNPVTLGTSASISCRSSKNLLHSNGITYLYWYLQRPGQSPQLLIYRASTLASGVPNRFSGSESGTDFTLRISRVEAEDVGVYYCAQLLELPHTFGGGTKLEIK
notes: its making is not described; also called chimeric antibody c35
binds: all assays above

B3: Antibody 9-8B (antibody, V domains shown)
VH: QIQLVQSGPELKKPGETVKISCKASGYTFTHYGMNWVKQAPGKGLKWMGWINTYTGELTYADDFKGRFAFSLETSASTAYLQINNLKNEDTATYFCARRAYYRYDYVMDYWGQGTSVTVSS
VL: DIVMTQSQKFMSTSVGDRVSVTCKASHNVGTNVAWYQQKPGQSPKALIYSASYRYSGVPGRFTGSGSGTDFTLTISNVQSEDLAEYFCHQYNNYPYTFGGGTKLEIK
binds: all assays above

B4: Antibody T895 (antibody, V domains shown)
VH: EVQLQQSGPELVKPGASVKMSCKASGYTFTDYNMHWVKQSHGRTLEWIGYIVPLNGGSTFNQKFKGRATLTVNTSSRTAYMELRSLTSEDSAAYYCARGGTRFAYWGQGTLVTVSA
VL: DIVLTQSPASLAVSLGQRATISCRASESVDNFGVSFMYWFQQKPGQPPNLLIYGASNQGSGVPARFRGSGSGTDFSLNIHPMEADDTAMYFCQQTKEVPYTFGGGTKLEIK
notes: also called 31895
binds: all assays above

B5: c34 (antibody, V domains shown)
VH: EIQVQQSGPELVKPGASVKVSCKASGYSFTDYNMYWVKQSHGKSLEWIGFIDPYNGYTSYNQKFKGKATLTIDKSSSTAFMHLNSLTSEDSAVYYCAIYGYDDAYYFDYWGQGTTLTVSS
VL: QIVLTQSPAIMSASPGEKVTITCSATSSVSYMHWFRQKPGTSPKLWIYSTSNLASGVPARFSGSGSGTSYSLTISRMAAEDAATYYCQQRITYPFTFGSGTKLEIT
notes: its making is not described; also called chimeric antibody c34
binds: all assays above
